From article PMC9481161

Target: His6-MglB (Myxococcus xanthus) (UniProt Q1DB03)
Chain of UniProt Q1DB03 (Q1DB03 entry or part of it): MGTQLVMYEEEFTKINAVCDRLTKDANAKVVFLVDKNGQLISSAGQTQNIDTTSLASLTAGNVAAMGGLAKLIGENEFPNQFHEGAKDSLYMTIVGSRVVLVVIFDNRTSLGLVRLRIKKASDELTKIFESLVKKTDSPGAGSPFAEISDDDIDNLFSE

With Strep-RomY (natural protein) the MglA GTPase activity, malachite green-based assay; 3 μM MglA-His6 mixed 1:2:2 with MglB and Strep-RomY (against ~18 with MglB alone) was 31 GTP/MglA/hr and the MglA GTPase activity, regenerative coupled enzyme assay; 3 μM MglA-His6 mixed 1:2:2 with MglB and Strep-RomY (against ~12 with MglB alone) was 25 GTP/MglA/hr.
